This experiment deals with T1, recombinant mouse CTLA-4 protein (mouse, UniProt P09793 36-162, limits assumed).
T1 construct: also called CTLA-4 protein from mice
Nature of the experiment: ELISA, CTLA-4 protein coated on plate, anti-human IgG Fc-peroxidase detection. On the procedure: The binding activity of the anti-CTLA-4-IL-15Ra-sushi-IL-15 fusion protein to recombinant CTLA-4 protein which originated from different species, including human, cynomolgus monkey, rat, and mouse, was determined by Enzyme Linked Immunosorbent Assay (ELISA). Briefly, 96-well plates were coated overnight at 4° C. with […] of CTLA-4 protein diluted in PBS. Plates were blocked with 1% bovine serum albumin (BSA) for an hour at room temperature, and then incubated for additional 2 hours with the anti-CTLA-4-IL-15Ra-sushi-IL-15 fusion protein, Ipilimumab, or human IgG1 isotype control, at a 2-fold serial dilution starting from 1 μg/mL. Goat anti-human IgG (Fc specific)-peroxidase antibody (Sigma, 1:5000 dilution) was added to the plates and incubated for 1 hour at room temperature. After washing, the 3, 3′, 5, 5′-Tetramethylbenzidine (TMB) substrate was added to the wells to develop color and the absorbance at 450 nm was measured using the Multiskan plate reader (Thermo). Optical Density 450 (OD450) values were plotted against antibody concentration.
Background: An ELISA detects its analyte on a solid surface through an enzyme-linked reagent.

B1: Ipilimumab (antibody, V domains shown)
VH: QVQLVESGGGVVQPGRSLRLSCAASGFTFSSYTMHWVRQAPGKGLEWVTFISYDGNNKYYADSVKGRFTISRDNSKNTLYLQMNSLRAEDTAIYYCARTGWLGPFDYWGQGTLVTVSS
VL: not shown
notes: also called anti CTLA-4 antibody; CTLA-4 antibody
Consider B1, for which the binding result is recorded as “no binding”.

These data come from patent publication US20240254184A1 (SALUBRIS BIOTHERAPEUTICS, published 2024).
